From patent US7928289B2, “Method for production of transgenic plants with increased pathogenic resistance by altering the content and/or activity of actin-depolymerising factors” (BASF Plant Science GmbH, priority 2004, dated 2011)

B1: AtADF3: ADF3 from Arabidopsis thaliana (SEQ ID No. 11), expressed constitutively (pSUN2) or pathogen-inducibly (Lo123) in transgenic Arabidopsis plants (protein, listed as Arabidopsis thaliana)
chain: MANAASGMAVHDDCKLKFMELKTKRTHRFIIYKIEELQKQVIVEKIGEPGQTHEDLAASLPADECRYAIFDFDFVSSEGVPRSRIFFVAWSPDTARVRSKMIYASSKDRFKRELDGIQVELQATDPTEMDLDVFKSRAN
B2: HvADF3 (S^6A): Constitutively active variant of barley ADF3 (SEQ ID No. 2) with S6A substitution, overexpressed from vector pHvADF3-CA (protein)
chain: MANASAGAGIHDDCKLRFVELKSKRMHRFITYRLENQKEVIVDQTGQRDATYEDFTKTLPENDCRFAVFDFDFTTPEDVPKSRIFYIFWSPDTAKVRSKMTYASNEKFKRTLDGIQIEMQATDPSEISLDVIKERAH
modifications: Hordeum vulgare

Key:
Erysiphe cichoracearum = assay: Infection of transgenic Arabidopsis plants with Erysiphe cichoracearum; type: in vivo, Arabidopsis thaliana; settings: constitutive or pathogen-inducible expression
Description: (§1) The transformation is conducted according to the floral dip method (modified according to Clough and Bent, 1998). After being harvested, the seeds are sterilized with chlorine gas overnight and subsequently laid out on selection plates. The addition of antibiotics is conducted in dependency on the plant resistance marker. In case of pSUN2, BASTA is added; in case of Lo123, kanamycin is added. After sterilization, the seeds are laid out on the selection plates and are stored for stratification for two days at 4° C. in a cooling chamber. Subsequently, they are further observed under short-day conditions. After about 10 days, the first selection of the plants can be performed. Non-transgenic plants will lose color during selection, while transgenic plants having the corresponding resistance gene remain green. Those plants remaining green after the first selection are selected a second time under same conditions. Those plants still maintaining their color during the second selection can then be transferred to soil. The plants are selfed and the resulting T2 seed populations are subjected to phytopathological analysis. […]
The biotrophic mildew fungus is cultivated on Arabidopsis thaliana plants. […] These symptoms are quantified and tested for significance.

Peronospora parasitica = assay: Infection of transgenic Arabidopsis plants with Peronospora parasitica; type: in vivo, Arabidopsis thaliana; settings: constitutive or pathogen-inducible expression
Description: as §1
5 to 8-week-old plants are sprayed with a conidia spore suspension (about 10^6 spores/ml). […] These symptoms are quantified and tested for significance.

[1] = tested on: Blumeria graminis f. sp. hordei (Bgh); assay: Fungal development on epidermal leaf cells co-transfected with GUS reporter and HvADF3(S^6A); type: cell-based, Hordeum vulgare; settings: BCIngridmlo5; Bgh conidia four hours after bombardment
Description: Therefore, those cells were examined, which had been transfected with HvADF3 overexpression constructs.
For said experiments, epidermal leaf cells from barley were co-transfected with a plasmid for the GUS reporter together with a plasmid coding for HvADF3(S^6A), as was described in the above. Four hours after bombardment, the leaves were infected with Bgh conidia, and 22 hours after inoculation the leaves were stained with respect to GUS activity and fungal structures. FIGS. 8a and b show the fungal development in a transfected epidermal leaf cell. […] The expression of HvADF3(S^6A) corresponds to an overexpression of HvADF3. The experiments were performed in BCIngridmlo5 plants.

peroxisomes = assay: Movement of GFP-labeled peroxisomes in transfected epidermal leaf cells; type: cell-based, Hordeum vulgare; settings: epidermal leaf cells from barley; co-expression with GFP having peroxisomal targeting sequence
Description: In order to further examine the HvADF3 function in barley, the effect of the overexpression or the silencing of HvADF3 on the mobility of peroxisomes was examined. Peroxisomes are known to be moved along actin filaments (Mathur (2002) Plant Physiology, Vol. 128, 1031-1045). Herein, barley peroxisomes were visualized by co-transformation of a plasmid expressing a variant of the Green Fluorescent Protein (GFP) with a peroxisomal targeting sequence (Mathur et al., vide supra). Herein, epidermal leaf cells from barley were transfected either only with the GFP construct or together with the already mentioned mutant of HvADF3 (S^6A). The expression of said mutant corresponds to an increase of the content and the activity of ADF3.
With the aid of the PCR method, a so-called peroxisome target sequence (PTS) was fused C-terminally to the green fluorescent protein. Said sequence consists of the three amino acids serine (S), […], and leucine (L) (Jedd, G. et al. (2002) Plant Cell Physiol 43, 384-392).
The GFP peroxisome target sequence vector (pGFPTS, FIG. 6) has a maize polyubiquitin promoter (pUbi), the coding gene for the green fluorescent protein including the peroxisome target sequence (GFPTS), and a nopaline synthase transcription terminator sequence (NOS).
The overexpression of HvADF3 was performed as described in the above. […]

actin cytoskeleton = assay: Phalloidine staining of the actin cytoskeleton in transfected epidermal leaf cells; type: cell-based, Hordeum vulgare; settings: BCIngridmlo5; cells labeled with dsRED
Description: For this experiment, epidermal leaf cells from barley were transfected with a plasmid expressing dsRED (RFP) in order to label the transfected cells. In addition in some experiments, a constitutively active variant of HvADF3 bearing an S^6A amino acid substitution rendering the protein inaccessible for N-terminal phosphorylation was expressed. A corresponding mutant was described for ADF3 from maize (Smertenko et al., Plant J 14, 187-193).
As described in the above, said vectors were then used for transfecting the plants.
The dsRED vector (pUbi-RFP-Nos, FIG. 4) has a maize polyubiquitin promoter (pUbi), the coding gene for the red fluorescent protein (Discosoma sp. fluorescent protein FP583; RFP), and a nopaline synthase transcription termination sequence (NOS). The GenBank accession number for RFP is AF168419.
The experiments were conducted in BCIngridmlo5.

Molecule | resistance to Erysiphe cichoracearum as compared to non-transgenic wild-type plants (Erysiphe cichoracearum) | resistance to Peronospora parasitica as compared to non-transgenic wild-type plants (Peronospora parasitica) | fungal development in transfected cells [1] | peroxisomal movement (peroxisomes) | phalloidine-stainable actin fibers in bombarded cells (actin cytoskeleton)
B1 | significantly increased resistance | significantly increased resistance | – | – | –
B2 | – | – | the fungus can only form very short hyphae | considerably reduced | stainable actin fibers could only be detected in the neighboring cells, but not in the bombarded cells
